In the test the target is ubiquitinated proteins of yeast cells. Put plainly: Flag purification from yeast cells, anti-Ub immunoblot. On the technique in general: Immunoblotting shows a protein as a band on a membrane.

Regarding “Flag-rad23^uba1 (yeast Rad23 L183A, amino-terminal Flag epitope) (from UniProt P32628 1-398)”, the reduction in the amount of ubiquitinated protein recovered, against Flag-Rad23 worked out at 80%.

“Flag-rad23^Δuba1 (yeast Rad23 with residues 141-190 removed, amino-terminal Flag epitope) (from UniProt P32628 1-140; P32628 191-398)” came in with an interaction remaining, compared to the wildtype protein of 1%.

These data come from US20050287608A1.
